PMC4888959 (Molecular microbiology, 2015)

B1: EAL (MBP-tagged EAL domain of CsrD, residues 393–646) (domain or fragment, E. coli, UniProt P13518 393-646, looked up)
chain: GRGNVRWRTLIEQMLSRGGPRLYQKPAVTREGQVHHRELMCRIFDGNEEVSSAEYMPMVLQFGLSEEYDRLQISRLIPLLRYWPEENLAIQVTVESLIRPRFQRWLRDTLMQCEKSQRKRIIIELAEADVGQHISRLQPVIRLVNALGVRVAVNQAGLTLVSTSWIKELNVELLKLHPGLVRNIEKRTENQLLVQSLVEACSGTSTQVYATGVRSRSEWQTLIQRGVTGGQGDFFASSQPLDTNVKKYSQRYSV
B3: His-tagged EIIA^Glc (enzyme IIA^Glc of the glucose-specific PTS), unphosphorylated (natural protein, E. coli, UniProt P69783 1-169, looked up)
chain: MGLFDKLKSLVSDDKKDTGTIEIIAPLSGEIVNIEDVPDVVFAEKIVGDGIAIKPTGNKMVAPVDGTIGKIFETNHAFSIESDSGVELFVHFGIDTVELKGEGFKRIAEEGQRVKVGDTVIEFDLPLLEEKAKSTLTPVVISNMDEIKELIKLSGSVTVGETPVIRIKK

Columns and labels:
[1] = molecular target: B3; assay: SEC
SEC = molecular target: the molecule itself; assay: SEC
[2] = molecular target: B1; assay: pull-down
[3] = molecular target: T1, CsrD^ΔHAMP (MBP-tagged CsrD residues 192–646) (E. coli, UniProt P13518 192-646); assay: pull-down
T1 sequence (looked up): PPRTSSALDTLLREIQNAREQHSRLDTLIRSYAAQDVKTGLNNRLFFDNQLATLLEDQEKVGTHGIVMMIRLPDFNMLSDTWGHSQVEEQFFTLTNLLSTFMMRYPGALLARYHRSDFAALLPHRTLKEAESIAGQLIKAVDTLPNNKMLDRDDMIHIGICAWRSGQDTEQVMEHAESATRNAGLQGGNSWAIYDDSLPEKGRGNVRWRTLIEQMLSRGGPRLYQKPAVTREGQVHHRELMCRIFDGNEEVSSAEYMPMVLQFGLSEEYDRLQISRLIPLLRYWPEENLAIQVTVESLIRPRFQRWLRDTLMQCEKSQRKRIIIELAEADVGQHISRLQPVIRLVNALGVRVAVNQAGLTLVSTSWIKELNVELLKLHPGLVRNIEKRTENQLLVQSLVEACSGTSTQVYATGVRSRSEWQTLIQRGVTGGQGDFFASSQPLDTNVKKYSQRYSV

[4] = molecular target: B3; assay: pull-down

## B1
[1]
  stoichiometry N: 1 EAL per EIIA^Glc

B2: CsrD^ΔTM (MBP-tagged CsrD residues 156–646, transmembrane domains replaced with MBP) (domain or fragment, E. coli, UniProt P13518 156-646, looked up)
chain: RWLQRQLAGQELLETRATRILNGERGSNVLGTIYEWPPRTSSALDTLLREIQNAREQHSRLDTLIRSYAAQDVKTGLNNRLFFDNQLATLLEDQEKVGTHGIVMMIRLPDFNMLSDTWGHSQVEEQFFTLTNLLSTFMMRYPGALLARYHRSDFAALLPHRTLKEAESIAGQLIKAVDTLPNNKMLDRDDMIHIGICAWRSGQDTEQVMEHAESATRNAGLQGGNSWAIYDDSLPEKGRGNVRWRTLIEQMLSRGGPRLYQKPAVTREGQVHHRELMCRIFDGNEEVSSAEYMPMVLQFGLSEEYDRLQISRLIPLLRYWPEENLAIQVTVESLIRPRFQRWLRDTLMQCEKSQRKRIIIELAEADVGQHISRLQPVIRLVNALGVRVAVNQAGLTLVSTSWIKELNVELLKLHPGLVRNIEKRTENQLLVQSLVEACSGTSTQVYATGVRSRSEWQTLIQRGVTGGQGDFFASSQPLDTNVKKYSQRYSV
SEC
  stoichiometry N: 4

## B3
[2]
  binding result: binds
[3]
  binding result: binds

B4: CsrD^ΔGGDEF (MBP-tagged CsrD residues 156–223 and 393–646) (domain or fragment, E. coli, UniProt P13518 156-223, looked up)
chain: RWLQRQLAGQELLETRATRILNGERGSNVLGTIYEWPPRTSSALDTLLREIQNAREQHSRLDTLIRSYGRGNVRWRTLIEQMLSRGGPRLYQKPAVTREGQVHHRELMCRIFDGNEEVSSAEYMPMVLQFGLSEEYDRLQISRLIPLLRYWPEENLAIQVTVESLIRPRFQRWLRDTLMQCEKSQRKRIIIELAEADVGQHISRLQPVIRLVNALGVRVAVNQAGLTLVSTSWIKELNVELLKLHPGLVRNIEKRTENQLLVQSLVEACSGTSTQVYATGVRSRSEWQTLIQRGVTGGQGDFFASSQPLDTNVKKYSQRYSV
SEC
  stoichiometry N: 4
[4]
  binding result: binds

B5: CsrD^ΔEAL (MBP-tagged CsrD residues 156–385) (domain or fragment, E. coli, UniProt P13518 156-385, looked up)
chain: RWLQRQLAGQELLETRATRILNGERGSNVLGTIYEWPPRTSSALDTLLREIQNAREQHSRLDTLIRSYAAQDVKTGLNNRLFFDNQLATLLEDQEKVGTHGIVMMIRLPDFNMLSDTWGHSQVEEQFFTLTNLLSTFMMRYPGALLARYHRSDFAALLPHRTLKEAESIAGQLIKAVDTLPNNKMLDRDDMIHIGICAWRSGQDTEQVMEHAESATRNAGLQGGNSWAIY
SEC
  stoichiometry N: 4
